How the values were obtained:
[1] = target: T1, Human butyrylcholinesterase (Homo sapiens, UniProt P06276); test: SPR
[2] = target: T1, Human butyrylcholinesterase; test: ELISA
human albumin = human albumin (Homo sapiens, UniProt P02768); test: affinity purification with mass spectrometry
[3] = target: T1, Human butyrylcholinesterase; test: BLI

T1 sequence (P06276 29-602): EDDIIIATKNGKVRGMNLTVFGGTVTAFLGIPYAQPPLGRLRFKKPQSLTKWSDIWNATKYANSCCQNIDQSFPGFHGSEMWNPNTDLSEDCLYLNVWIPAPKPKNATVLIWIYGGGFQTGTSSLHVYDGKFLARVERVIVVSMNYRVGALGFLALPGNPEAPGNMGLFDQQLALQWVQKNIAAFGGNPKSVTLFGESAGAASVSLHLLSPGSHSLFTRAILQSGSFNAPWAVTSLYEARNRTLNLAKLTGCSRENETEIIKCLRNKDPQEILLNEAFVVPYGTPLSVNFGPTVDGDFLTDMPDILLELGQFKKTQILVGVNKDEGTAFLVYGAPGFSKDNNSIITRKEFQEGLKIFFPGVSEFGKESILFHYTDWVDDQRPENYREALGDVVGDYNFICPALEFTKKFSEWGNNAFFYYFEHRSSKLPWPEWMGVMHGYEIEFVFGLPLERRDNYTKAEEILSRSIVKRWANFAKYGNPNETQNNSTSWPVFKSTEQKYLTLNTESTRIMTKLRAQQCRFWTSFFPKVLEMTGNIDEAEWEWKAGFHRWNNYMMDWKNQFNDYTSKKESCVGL
Sequence of human albumin (P02768 25-609): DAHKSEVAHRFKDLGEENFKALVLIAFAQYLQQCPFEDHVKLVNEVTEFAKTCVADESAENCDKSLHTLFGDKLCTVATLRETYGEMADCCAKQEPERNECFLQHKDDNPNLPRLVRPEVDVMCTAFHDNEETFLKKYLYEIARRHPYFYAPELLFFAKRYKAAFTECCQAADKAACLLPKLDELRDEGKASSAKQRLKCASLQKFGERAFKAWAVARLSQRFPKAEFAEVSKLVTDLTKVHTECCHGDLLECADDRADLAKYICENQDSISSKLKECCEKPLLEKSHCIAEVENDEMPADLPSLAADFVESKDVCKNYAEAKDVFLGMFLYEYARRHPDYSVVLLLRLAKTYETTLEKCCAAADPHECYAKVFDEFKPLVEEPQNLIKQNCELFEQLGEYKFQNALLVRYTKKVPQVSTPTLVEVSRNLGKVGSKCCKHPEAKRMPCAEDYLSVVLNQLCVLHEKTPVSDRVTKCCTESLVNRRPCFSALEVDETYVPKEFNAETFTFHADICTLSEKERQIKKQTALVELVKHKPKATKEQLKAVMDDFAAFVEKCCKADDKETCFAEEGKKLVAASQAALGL

| Binder | Kd [1] | Kd [2] | binding result (human albumin) | kon [3] |
| --- | --- | --- | --- | --- |
| mouse anti-HuBChE monoclonal antibody 11D8 (antibody, V domains shown) VH: QVQLQQSGAELARPGASVKLSCKASGYTFTSQWLQWVKQRPGQGLEWIGAIYPGDGDTRYTQKFKGKATLTADKSSSTAYMQLTNLAPEDSAVYYCARSSMDYWGQGTSVTVSS VL: DILLTQSPAILSVSPGERVRLSCRASQSCGTSIYWYQQRTNGSPRLLIMYASEPFSGIPSRFSGSGSGTDFTLSINSVESEDIADYYCQQSNSWPWTFGGGTRLEIK | 0.9 nM | 0.26 nM | binds |  |
| mouse anti-HuBChE monoclonal antibody B2 12-1 (antibody, V domains shown) VH: EVQLQQSGPELVKPGASVKISCKASGYTFTDYSMHWVKLSHGKSLEWIGYIYPYNDDTDYNQKFKTKATLTVDSSSSITYLELRSLTSEDSAVYYCARSDGYSYYFDYWGQGTTLTVSS VL: DIVMTQSPATLSVTPGDRVSLSCRASQSISDYLHWYQQKSHESPRLLIKYASQSISGIPSRFSGGGSGSDFTLSINSVEPEDVGVYYCQNGHRFPLTFGAGTKLELK | 0.14 nM | 1.41 nM |  | 800000 to 1.2e+06 M⁻¹ s⁻¹ |

Source: PMC5095618 (Chemico-biological interactions, 2015)
